Data reported in the supplement of paper PMC9732359.
± gives the uncertainty stated by the source.

Assay: protein stability index of a GFP-peptide fusion (yeast GPS) (PSI 1-4); higher = more stable; sorted into four equal gates, so the index is relative within each strain
Conditions: pdr5∆
How it was run: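 The protein stability index combines read frequencies across sorting gates, each weighted by its gate number and then summed. To obtain those frequencies, a pooled yeast library of GFP fusions to tiled 17-residue yeast protein peptides, on a plasmid also expressing Cherry, was grown to mid-log phase in leucine-free medium. The cells were sorted into four equal gates by GFP/Cherry ratio before plasmid amplification by PCR and Illumina sequencing.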

Q: Which protein stability index does the source give for SAIEHTTLKSVTIASEI [RPO21] here?
A: 2.39 ± 0.077

Same assay, conditions: san1∆

Q: Which protein stability index does the source give for RAVANRTDATFIRVIGS [RPT1] here?
A: 3.17 ± 0.082

Q: With RCMMAAQYFYSGAYSYP [DIS3] as the sequence, how does the protein stability index read?
A: 1.81 ± 0.2

Q: With RCTKIIKGNGESDETTT [RPT1] as the sequence, how does the protein stability index read?
A: 3.36 ± 0.038

Q: With RCWKANIPWDVPGMPAP [PRP8] as the sequence, how does the protein stability index read?
A: 1.28 ± 0.12

Q: Which protein stability index does the source give for RDCIDISIFSTPGSVSL [PRP8] here?
A: 2.45 ± 0.1

Q: For RDGVLTVTLNKNREVVQ [RRP45], which protein stability index is on record?
A: 2.81 ± 0.08

Q: With RDRKLITDKGTVDGRLY [YJL039C/NUP192] as the sequence, how does the protein stability index read?
A: 3.19 ± 0.071

Q: With RDRTSGQKLLAIKYGYE [SRB4] as the sequence, how does the protein stability index read?
A: 3.11 ± 0.084

Q: With RDVELSSDELKVIEEQL [SMC4] as the sequence, how does the protein stability index read?
A: 2.94 ± 0.054

Q: With REAIRPGHEMEDFLDKS [AAR2] as the sequence, how does the protein stability index read?
A: 3.24 ± 0.044

Q: Which protein stability index does the source give for REDTPLSQNESTRASTV [ISW2] here?
A: 2.96 ± 0.052

Q: With REHSLQLFRTNKVQIMI [PRP28] as the sequence, how does the protein stability index read?
A: 1.61 ± 0.084

Q: For REKNALKRLAWQYIVID [ISW2], which protein stability index is on record?
A: 1.76 ± 0.12

Q: For REKRAREKAEAEAEKKK [RPL13A], which protein stability index is on record?
A: 3.31 ± 0.061

Q: For RENIAMLKRFFPGVKGL [SMC1], which protein stability index is on record?
A: 2.01 ± 0.13

Q: For RERRIHVTQEDFELAVG [RPT6], which protein stability index is on record?
A: 2.08 ± 0.074

Q: For REYLEEYKSLFVVGVDN [RPP0], which protein stability index is on record?
A: 2.91 ± 0.1

Q: Which protein stability index does the source give for RFEVINNETEQLKAEEK [SMC1] here?
A: 3.05 ± 0.13

Q: With RFNHLVTRLFFICSIIQ [YML031W/NDC1] as the sequence, how does the protein stability index read?
A: 1.32 ± 0.086

Q: Which protein stability index does the source give for RFSYSPPKEGNYEIVFD [YMR129W/POM152] here?
A: 3.13 ± 0.071

Q: With RFWSFMKTQRFVSNMGF [SIR4] as the sequence, how does the protein stability index read?
A: 1.82 ± 0.13

Q: For RGEIREIEQVCKQVHDK [MED7], which protein stability index is on record?
A: 2.8 ± 0.062

Q: For RGFGKINKQRVPLSDNA [RPL7A], which protein stability index is on record?
A: 3.29 ± 0.094

Q: With RGLTPQEFFFHAMGGRE [RPO21] as the sequence, how does the protein stability index read?
A: 2.2 ± 0.074

Q: With RGVRPYKHIDASGSINR [RPS19A] as the sequence, how does the protein stability index read?
A: 3.1 ± 0.062

Q: With RHHWQYTKASLAKERQK [SSN8] as the sequence, how does the protein stability index read?
A: 1.4 ± 0.14

Q: With RHMALLVDVMTTQGGLT [RPO21] as the sequence, how does the protein stability index read?
A: 2.44 ± 0.09

Q: Which protein stability index does the source give for RHNKSHTLCNRCGRRSF [RPL37A] here?
A: 2.82 ± 0.042

Q: For RHSNALVDILPPDSDSS [RPT3], which protein stability index is on record?
A: 2.69 ± 0.062

Q: Which protein stability index does the source give for RIFKITEKLSPLASEES [YGL100W/SEH1] here?
A: 2.41 ± 0.066

Q: With RIGKHRKHPGGRGMAGG [RPL28] as the sequence, how does the protein stability index read?
A: 2.97 ± 0.1

Q: Which protein stability index does the source give for RIHTNDNDIMNLGSRTK [SSN3] here?
A: 2.95 ± 0.035

Q: With RIIEKSVRRSGALDVEG [RRP45] as the sequence, how does the protein stability index read?
A: 2.47 ± 0.11

Q: With RIISGDQITKMKDRLVE [RPN9] as the sequence, how does the protein stability index read?
A: 3.34 ± 0.26

Q: Which protein stability index does the source give for RILSTLDRELLKPSMSV [RPT3] here?
A: 3.07 ± 0.073

Q: For RIYTNSFIDIMEVLGIE [RPO21], which protein stability index is on record?
A: 3.02 ± 0.045

Q: With RKANREEKLKANKEKKR [RPL24B] as the sequence, how does the protein stability index read?
A: 2.12 ± 0.087

Q: For RKKKFVLDVDPKYAKQK [ISW2], which protein stability index is on record?
A: 2.25 ± 0.12

Q: With RKWAARAASAKIESSVE [RPS8A] as the sequence, how does the protein stability index read?
A: 2.74 ± 0.056

Q: For RKYEISFGKIYVTKPMV [RPB2], which protein stability index is on record?
A: 1.88 ± 0.19

Q: With RLAKKPSMKKIKIEPSA [SIR3] as the sequence, how does the protein stability index read?
A: 2.76 ± 0.071

Q: For RLISQSLLASKSTYRTP [RIP1], which protein stability index is on record?
A: 2.82 ± 0.22

Q: Which protein stability index does the source give for RLMMNSKVGSADTGRDD [RPN11] here?
A: 3.51 ± 0.058

Q: Which protein stability index does the source give for RLNYLYQISAYQTRARQ [RPR2] here?
A: 1.85 ± 0.054

Q: Which protein stability index does the source give for RLQAKRLKDVEWVKLHR [RMP1] here?
A: 3.15 ± 0.056

Q: With RLQQGRRLPMTMFTAEQ [SNF2] as the sequence, how does the protein stability index read?
A: 3.13 ± 0.043

Q: For RLRKRVTIIPLDKIYTR [SMC2], which protein stability index is on record?
A: 1.84 ± 0.071

Q: For RLTMGNVFTPEISSQIE [RRI2], which protein stability index is on record?
A: 2.95 ± 0.1

Q: For RLWLKKVMEEEEQDCKC [POP8], which protein stability index is on record?
A: 3.07 ± 0.079

Q: With RMPIMLRSNKCILYDAD [RET1] as the sequence, how does the protein stability index read?
A: 1.25 ± 0.25

Q: Which protein stability index does the source give for RMRFPPFDDDEPPLSYE [PRP8] here?
A: 2.95 ± 0.035

Q: For RMRNRALREMRKSDQQD [POP1], which protein stability index is on record?
A: 3.23 ± 0.11

Q: For RMRVSVLEKYEVIGYIA [SSN3], which protein stability index is on record?
A: 1.09 ± 0.27

Q: Which protein stability index does the source give for RMSYGSHDKKTKCSTVV [SRP14] here?
A: 3.19 ± 0.045

Q: Which protein stability index does the source give for RNEQVTIELKNGTTVWG [SMD1] here?
A: 1.49 ± 0.24

Q: Which protein stability index does the source give for RNEVLESMDFLVLADAF [YCS4] here?
A: 2.43 ± 0.092

Q: Which protein stability index does the source give for RNFDTHENYIQDDDFPL [MCD1] here?
A: 2.85 ± 0.048

Q: With RNLQMGLRNQNMVRNNN [GRR1] as the sequence, how does the protein stability index read?
A: 2.63 ± 0.063

Q: For RNMIIVPEMIGSVVGIY [RPS15], which protein stability index is on record?
A: 1.53 ± 0.13

Q: Which protein stability index does the source give for RNNFLAENSHTQPKATS [PUP1] here?
A: 3.06 ± 0.044

Q: For RNRGKIHSGVLSSIESD [YMR153W/NUP53], which protein stability index is on record?
A: 3.13 ± 0.066

Q: Which protein stability index does the source give for RNSYPASFYSVNTEKKT [RPN3] here?
A: 2.82 ± 0.068

Q: Which protein stability index does the source give for RNTYQSAMGKQAMGVFL [RPB2] here?
A: 1.53 ± 0.12

Q: For RPDITMYCRPAPSDFSE [GRR1], which protein stability index is on record?
A: 2.97 ± 0.067

Q: Which protein stability index does the source give for RPKKITGWITQSTPVLL [RPN1] here?
A: 2.3 ± 0.057

Q: For RPLKLERGFACIPLVGI [FAS1], which protein stability index is on record?
A: 1.51 ± 0.092

Q: With RPPNGIKNFKSLLLSSS [SSN2] as the sequence, how does the protein stability index read?
A: 1.83 ± 0.12

Q: With RPPVKAILQEKILSILN [ECM29] as the sequence, how does the protein stability index read?
A: 1.71 ± 0.14

Q: With RQCFQDNCCDFKVRTNL [MED1] as the sequence, how does the protein stability index read?
A: 3.42 ± 0.04

Q: Which protein stability index does the source give for RQDGSYTYHSTNKDNKA [ARP9] here?
A: 2.88 ± 0.044

Q: With RQEVTKFAKANIGYVMG [RPN4] as the sequence, how does the protein stability index read?
A: 1.21 ± 0.18

Q: With RQFSNEEVNRCYLRWQH [SNF2] as the sequence, how does the protein stability index read?
A: 2.95 ± 0.086

Q: With RQINKLIDSLPGVDVSA [SRB7] as the sequence, how does the protein stability index read?
A: 1.6 ± 0.077

Q: With RQIRPIMERIKSSLSLR [ITC1] as the sequence, how does the protein stability index read?
A: 1.35 ± 0.087

Q: For RQKINGCEANIHSLVKQ [YIL149C/MLP2], which protein stability index is on record?
A: 2.98 ± 0.22

Q: Which protein stability index does the source give for RQLQYETLGDILKRDFE [ECM29] here?
A: 2.76 ± 0.095

Q: With RQRELLIAHQRSAWNNN [GRR1] as the sequence, how does the protein stability index read?
A: 2.31 ± 0.06

Q: With RQSSDESDNYRLLPNGS [YML031W/NDC1] as the sequence, how does the protein stability index read?
A: 3.13 ± 0.078

Q: For RQTTSNTGLLNKANIQA [RPN11], which protein stability index is on record?
A: 3.17 ± 0.054

Q: For RRKTTKQNSSSDINQND [YDL088C/ASM4], which protein stability index is on record?
A: 2.96 ± 0.083

Q: Which protein stability index does the source give for RRMAFKPFGSAKSDETK [YLR335W/NUP2] here?
A: 2.88 ± 0.058

Q: With RRWNKLCTLNDSKGSLY [YGL100W/SEH1] as the sequence, how does the protein stability index read?
A: 2.91 ± 0.078

Q: With RRYKLLTATPNSINKTT [POP1] as the sequence, how does the protein stability index read?
A: 2.4 ± 0.065

Q: With RSALEKGSRFISTLQVK [RPB2] as the sequence, how does the protein stability index read?
A: 1.67 ± 0.19

Q: With RSISEPSINLDPDNTSF [ESC2] as the sequence, how does the protein stability index read?
A: 3.07 ± 0.058

Q: With RSKFGGDFLDFQVHERL [ARP7] as the sequence, how does the protein stability index read?
A: 3.5 ± 0.075

Q: For RSPEEIRRTFNIVNDFT [SKP1], which protein stability index is on record?
A: 1.53 ± 0.13

Q: Which protein stability index does the source give for RSRKTVKAQRPITGASL [RPL24A] here?
A: 3.14 ± 0.12

Q: For RSRYRREIDALKKQLHV [YIL149C/MLP2], which protein stability index is on record?
A: 3.23 ± 0.045

Q: With RTDQYTIDNIDSENFSF [YMR129W/POM152] as the sequence, how does the protein stability index read?
A: 2.91 ± 0.039

Q: With RTGPKALPDAVTIIEPK [RPS3] as the sequence, how does the protein stability index read?
A: 3.1 ± 0.059

Q: Which protein stability index does the source give for RTKNLVSKMEKAEKTLK [SMC4] here?
A: 3.21 ± 0.065

Q: For RTMYFILDGQDVEENRS [YJR042W/NUP85], which protein stability index is on record?
A: 3.22 ± 0.086

Q: For RTPVIISLRNNHKIIAR [SMD2], which protein stability index is on record?
A: 2.13 ± 0.06

Q: With RTQPWSIMPDLYFYRDP [RPS0A] as the sequence, how does the protein stability index read?
A: 2.85 ± 0.043

Q: With RTVAGFSNVELPQCIIP [ARP7] as the sequence, how does the protein stability index read?
A: 2.56 ± 0.051

Q: With RVLQLLAVIMDNIGEID [YCG1] as the sequence, how does the protein stability index read?
A: 1.46 ± 0.17

Q: For RVRNKDIRKFLDGIYVS [RPL9A], which protein stability index is on record?
A: 2.05 ± 0.11

Q: With RVRVTGGGHVSQVYAIR [RPS16A] as the sequence, how does the protein stability index read?
A: 2.93 ± 0.044

Q: Which protein stability index does the source give for RYQIMLPEQLKSGKFCS [SNM1] here?
A: 2.7 ± 0.07

Q: With SAAELERLDKDKDRDTR [SNF5] as the sequence, how does the protein stability index read?
A: 1.9 ± 0.12

Q: For SADDDVNNGNIPSQRGT [SIR3], which protein stability index is on record?
A: 2.67 ± 0.11

Q: Which protein stability index does the source give for SAFMKFSKAIEWDMLNV [BRR2] here?
A: 1.99 ± 0.081

Q: With SAIEHTTLKSVTIASEI [RPO21] as the sequence, how does the protein stability index read?
A: 2.57 ± 0.078
